# Results: patent US20210063414A1, “METHODS FOR PREVENTING AND/OR TREATING BONE LOSS CONDITIONS BY MODULATING IRISIN” (Dana-Farber Cancer Institute, Inc., priority 2018, published 2021)
# B1: irisin: secreted cleaved form of FNDC5; recombinant human/mouse irisin with C-terminal his tag produced in HEK293 cells (protein)
# chain: DSPSAPVNVTVRHLKANSAVVSWDVLEDEVVIGFAISQQKKDVRMLRFIQEVNTTTRSCALWDLEEDTEYIVHVQAISIQGQSPASEPVLFKTPREAEKMASKNKDEVTMKE
# modifications: left off: small tags and cut ends
# notes: secreted cleaved form of FNDC5; recombinant human/mouse irisin with C-terminal his tag produced in HEK293 cells
# Tested on: 3T3 F442A adipose cells
# Assay: Integrin-like signaling in adipose cells, immunoblot
# Format: cell-based, murine
# Details: irisin 10 minutes
# Procedure: Differentiated 3T3 F442A adipose cells were incubated in serum free medium for 4 hours followed by treatment of indicated concentrations of irisin for 10 minutes. Cells were lysed to detect the indicated protein level using immunoblot analysis.
# Certain materials and methods were used to generate the results described herein. For example, the data shown in FIG. 1A resulted from MLO-Y4 (an osteocyte-like cell line) cells treated with the indicated concentration of irisin and hydrogen peroxide for 4 hours. Cells were stained with Hoechst 33342 (ThermoFisher Scientific, catalog number H3570) and Eth-D1 (ThermoFisher Scientific, catalog number E1169) and analyzed to determine the percentage of cell death using ImageJ. […] Co-precipitated irisin was analyzed by immunoblot analysis against flag tag (Sigma Aldrich, catalog number A8592). The data shown in FIGS. 5A and 5B were generated from MLO-Y4 cells treated and analyzed as in the experiments used to generate the data shown in FIG. 2D, except that pre-treatment of 100 nM RGDS (FIG. 5A) or echistatin (R & D Systems Inc., catalog number 3202/100U) (FIG. 5B) for 10 minutes was performed before irisin treatment. […] Sclerostin mRNA level was analyzed by qPCR (FIG. 7A). […] Epididymal fats were collected, RNAs were extracted from the tissues, and mRNA levels of the indicated genes were analyzed by qPCR. […]
molecule,measurement,value
B1,irisin dose at which phosphorylation of FAK and CREB were observed,30 pM
